In US12540174 (NASCENT BIOTECH, dated 2026):

Experiments:
[1] = molecular target: T1, antigen of the potency binding ELISA of Example 1 (not named); assay: binding ELISA (potency assay), antigen not named; lot stored in PETG serum vial
T1 construct: kept apart from m2 so as not to guess

[2] = molecular target: T1, antigen of the potency binding ELISA of …; assay: binding ELISA (potency assay), antigen not named; lot stored in glass serum containers
[3] = molecular target: T1, antigen of the potency binding ELISA of …; assay: binding ELISA (potency assay), antigen not named; lot stored in polypropylene cryovial
[4] = molecular target: T1, antigen of the potency binding ELISA of …; assay: binding ELISA, antigen not named; third lot (reference standard) stored in PETG serum vial
[5] = molecular target: T1, antigen of the potency binding ELISA of …; assay: binding ELISA, antigen not named; third lot (reference standard) stored in polypropylene cryovials, 3 vials
[6] = molecular target: T2, recombinant human vimentin (human, UniProt P08670 1-466, limits assumed); assay: BLI, Octet HTX, 25 C; pritumumab on anti-human-Fc (AHC) biosensors, recombinant human vimentin as analyte, 1:1 model
T2 construct: also called recombinant vimentin
Experimental: (§1) To determine binding affinity of the antibody Pritumumab for vimentin. Octet HTX was employed to measure the antibody binding to human vimentin. Binding experiments were performed on Octet HTX at 25° C. Pritumumab (10 ug/ml) was loaded onto Anti-Human-Fc (AHC) biosensors. Loaded sensors were dipped into a serial of antigen dilutions (recombinant human vimentin) (300 nM start, 1:3 down, 7 points). Kinetic constants were calculated using a monovalent (1:1) model.

[7] = molecular target: T2, recombinant human vimentin; assay: BLI, Octet HTX, 25 C; pritumumab on anti-human-Fc (AHC) biosensors, recombinant human vimentin as analyte (300 nM start, 1:3, 7 points), 1:1 model
Experimental: as §1

[8] = molecular target: T1, antigen of the potency binding ELISA of …; assay: binding (potency) ELISA, OD 450 nm against Log10 [mAb]; clinical drug substance lot stored in polypropylene cryovial; coated antigen not named
[9] = molecular target: T1, antigen of the potency binding ELISA of …; assay: binding (potency) ELISA, OD 450 nm against Log10 [mAb]; reference standard (tox) lot stored in PETG serum vial; coated antigen not named; the table cell has no unit, ug/ml is taken from the concentration axis
[10] = molecular target: T1, antigen of the potency binding ELISA of …; assay: binding (potency) ELISA, OD 450 nm against Log10 [mAb]; reference standard (tox) lot stored in polypropylene cryovial 1; coated antigen not named; the table cell has no unit, ug/ml is taken from the concentration axis
[11] = molecular target: T1, antigen of the potency binding ELISA of …; assay: binding (potency) ELISA, OD 450 nm against Log10 [mAb]; reference standard (tox) lot stored in polypropylene cryovial 2; coated antigen not named; the table cell has no unit, ug/ml is taken from the concentration axis
[12] = molecular target: T1, antigen of the potency binding ELISA of …; assay: binding (potency) ELISA, OD 450 nm against Log10 [mAb]; reference standard (tox) lot stored in polypropylene cryovial 3; coated antigen not named; the table cell has no unit, ug/ml is taken from the concentration axis

T2 sequence (P08670 whole entry): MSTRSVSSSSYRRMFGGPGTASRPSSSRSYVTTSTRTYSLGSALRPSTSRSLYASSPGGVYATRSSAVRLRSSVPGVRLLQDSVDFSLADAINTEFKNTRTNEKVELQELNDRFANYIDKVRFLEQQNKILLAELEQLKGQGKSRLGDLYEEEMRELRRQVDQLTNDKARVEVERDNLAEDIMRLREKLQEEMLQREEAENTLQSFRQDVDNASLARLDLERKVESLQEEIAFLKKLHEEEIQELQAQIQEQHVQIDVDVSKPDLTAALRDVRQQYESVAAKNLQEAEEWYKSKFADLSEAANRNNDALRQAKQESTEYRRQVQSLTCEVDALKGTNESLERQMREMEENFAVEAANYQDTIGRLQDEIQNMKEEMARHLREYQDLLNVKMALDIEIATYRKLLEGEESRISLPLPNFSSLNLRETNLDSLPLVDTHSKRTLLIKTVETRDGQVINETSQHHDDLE

EC50 [1]: 9.6 µg/mL
EC50 [2]: 8.25 µg/mL
EC50 [3]: 20 µg/mL
EC50 [4]: 11 µg/mL
EC50 [5]: 37 to 40 µg/mL
koff [6]: 0.000443 s⁻¹
kon [6]: 58700 M⁻¹ s⁻¹
Kd [7]: 7.55 nM
EC50 [8]: 20.1 µg/mL
B1: pritumumab (antibody, human IgG1, kappa, V domains shown)
VH: EVQLLESGGDLVQPGGSLRLSCAASGFTFSNYAMSWVRQAPGKGLEWVSAITPSGGSTNYADSVKGRFTISRDNSQNTLYLQMNSLRVEDTAVYICGRVPYRSTWYPLYWGQGTLVTVSS
VL: DIQMTQSPSSLSASVGDRVTITCRASQDISNYLAWFQQKPGKAPKSLIYAASSLHSKVPTQFSGSGSGTDFTLTISSLQPEDFATYYCLQYSTYPITFGGGTKVEIKR
notes: Several lots stored in different containers (glass, PETG, polypropylene) were tested; also called Pritumumab human monoclonal antibody
EC50 [9]: 11.4 µg/mL
EC50 [10]: 38 µg/mL
EC50 [11]: 37.1 µg/mL
EC50 [12]: 40.2 µg/mL
